Experimental data from patent EP1192182B1, “PITUITARY ADENYLATE CYCLASE ACTIVATING PEPTIDE (PACAP) RECEPTOR 3 (R3) AGONISTS AND THEIR PHARMACOLOGICAL METHODS OF USE” (priority 1999, dated 2001).
Non-standard residues stand in square brackets, D forms with d. Nle = CCCC[C@H](N)C(=O)O

T1: PACAP-R3 (human, UniProt P41587 24-438)
T1 sequence (looked up): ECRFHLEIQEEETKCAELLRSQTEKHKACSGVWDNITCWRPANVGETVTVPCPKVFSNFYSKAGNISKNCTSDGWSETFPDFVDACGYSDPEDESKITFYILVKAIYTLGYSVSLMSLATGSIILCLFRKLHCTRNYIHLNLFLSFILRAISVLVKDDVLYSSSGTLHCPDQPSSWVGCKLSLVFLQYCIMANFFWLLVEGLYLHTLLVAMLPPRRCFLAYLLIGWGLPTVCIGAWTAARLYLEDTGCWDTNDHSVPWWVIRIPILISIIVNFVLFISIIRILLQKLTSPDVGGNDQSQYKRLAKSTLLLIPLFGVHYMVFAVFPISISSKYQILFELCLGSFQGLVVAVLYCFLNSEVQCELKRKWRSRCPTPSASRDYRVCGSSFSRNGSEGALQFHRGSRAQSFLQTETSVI

T2: human PACAP/VIP R2 (PACAP R3) receptor (human, UniProt P41587 24-438)
T2 sequence (looked up): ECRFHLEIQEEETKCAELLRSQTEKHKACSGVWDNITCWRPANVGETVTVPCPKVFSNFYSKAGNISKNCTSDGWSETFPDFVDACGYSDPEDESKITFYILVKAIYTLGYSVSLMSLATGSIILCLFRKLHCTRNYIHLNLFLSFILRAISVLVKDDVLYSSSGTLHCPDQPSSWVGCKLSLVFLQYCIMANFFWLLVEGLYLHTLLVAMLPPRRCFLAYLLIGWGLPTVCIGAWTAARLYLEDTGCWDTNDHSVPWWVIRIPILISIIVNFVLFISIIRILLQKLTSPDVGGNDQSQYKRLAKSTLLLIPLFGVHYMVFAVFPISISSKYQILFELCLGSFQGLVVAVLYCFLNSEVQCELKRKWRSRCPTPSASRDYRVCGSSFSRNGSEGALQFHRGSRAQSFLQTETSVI


molecular target: T1, PACAP-R3; assay: cell-based or functional assay

Binder	R3 Selectivity	R3 EC50
HSDAVFTENYTKLRKQLAAKKYLNDLKKGGTSWCEPGWCR [R3P19]	30 ratio	–
Ac-HSDAVFTENYTKLRKQLAAKKYLNDLKKGGT-NH2 [R3P1]	> 50 ratio	–
HSDAVFTDNYTRLRKQLAAKKYLNDIKKG [R3P32]	200 ratio	–
HSDAVFTDNYTRLRKQMAAKKYLNSIKNSR [R3P147]	500 ratio	0.2 nM
HSDAVFTDNYTRLRKQMAVKKYLNSIKK [R3P41]	100 ratio	–
Ac-HSDAVFTENYTKLRKQ[Nle]AAKKYLNDLKKGGT-NH2 [R3P0]	> 250 ratio	–
HSDAVFTDNYTRLRKQMAVKKYLNSIKN [R3P42]	10 ratio	–
HSDAVFTDNYTRLRKQMAAKKYLNSIKNWR [R3P150]	50 ratio	0.8 nM
HSDAVFTDNYTRLRKQLAAKKYLNDIKKQ [R3P34]	> 70 ratio	–
HSDAVFTDNYTRLRKQMAAKKYLNSIKNKD [R3P153]	200 ratio	0.2 nM
HSDAVFTDNYTRLRKQMAAKKYLNSIKNKI [R3P159]	400 ratio	0.5 nM
HSDAVFTDNYTRLRKQMAAKKYLNSIKNKH [R3P158]	90 ratio	0.07 nM
HSDAVFTDNYTRLRKQMAAKKYLNSIKNKK [R3P160]	500 ratio	–
HSDAVFTDNYTRLRKQMAAKKYLNSIKNVR [R3P149]	80 ratio	0.5 nM
HSDAVFTDNYTRLRKQMAAKKYLNSIKNTR [R3P148]	100 ratio	0.3 nM
HSDAVFTDNYTRLRKQMAVKKYLNSILK [R3P43]	10 ratio	–
HSDAVFTDNYTRLRKQMAAKKYLNSIKNKF [R3P156]	100 ratio	1 nM
HSDAVFTDNYTELRKQMAVKKYLNSILN [R3P44]	6 ratio	–
HSDAVFTDNYTRLRKQMAAKKYLNSIKNKL [R3P161]	–	0.2 nM

Binder	R3 Selectivity	R3 EC50
HSDAVFTDNYTRLRKQMAAKKYLNSIKNKP [R3P164]	–	0.3 nM
HSDAVFTDNYTRLRKQLAAKKYLNDIKKNQ [R3P35]	> 40 ratio	–
HSDAVFTDNYTRLRKQMAAKKYLNSIKNKG [R3P157]	170 ratio	0.3 nM
HSDAVFTDNYTRLRKQMAAKKYLNDIKKGGT [R3P20]	230 ratio	–
HSDAVFTDNYTRLRKQLAVKKYLNDIKKGGT [R3P21]	60 ratio	–
HSDAVFTDNYTRLRKQLAVKKYLNSIKKGGT [R3P25]	20 ratio	–
HSDAVFTDNYTRLRKQLAAKKYLNSIKNGGT [R3P30]	50 ratio	–
HSDAVFTDNYTRLRKQMAAKKYLNSIKKGGT [R3P26]	> 180 ratio	–
HSDAVFTDNYTRLRKQLAAKKYLNDIKNGGT [R3P24]	34 ratio	–
HSDAVFTDNYTRLRKQLAAKKYLNSIKKGGT [R3P22]	24 ratio	–
HSDAVFTDNYTRLRKQLAVKKYLNDIKNGGT [R3P29]	> 200 ratio	–
HSDAVFTDNYTRLRKQMAAKKYLNSIKNQR [R3P145]	100 ratio	0.5 nM
HSDAVFTDNYTRLRKQLAAKKYLNDIKKKRY [R3P36]	> 200 ratio	–
HSDAVFTDNYTRLRKQMAAKKYLNSIKNKE [R3P155]	100 ratio	0.4 nM
HSDAVFTDNYTRLRKQMAAKKYLNSIKNKN [R3P163]	200 ratio	0.2 nM
HSDAVFTDNYTRLRKQLAAKKYLNDIKKGG [R3P31]	> 300 ratio	–
HSDAVFTDNYTRLRKQLAAKKYLNDIKK [R3P33]	> 200 ratio	–
HSDAVFTDNYTRLRKQMAAKKYLNSIKNRR [R3P146]	100 ratio	0.3 nM

molecular target: T2, human PACAP/VIP R2 (PACAP R3) receptor; assay: cell-based or functional assay

Binder	R3 EC50, nM (cAMP SPA)
HSDAVFTDNYTRLRKQMAAKKYLNSIKNKQ [rR3P165]	0.5 nM
